One assay deals with T1, human GITR on cells (human, UniProt Q9Y5U5 26-241).
T1 sequence (looked up): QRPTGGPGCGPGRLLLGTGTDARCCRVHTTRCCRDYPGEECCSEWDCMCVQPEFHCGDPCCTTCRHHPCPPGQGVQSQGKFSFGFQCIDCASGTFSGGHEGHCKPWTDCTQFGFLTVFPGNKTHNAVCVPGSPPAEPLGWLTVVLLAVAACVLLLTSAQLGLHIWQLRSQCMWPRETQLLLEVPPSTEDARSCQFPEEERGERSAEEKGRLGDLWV
Nature of the assay: cell-based or functional assay.

In the next assay the target is T2, hCD32b (human, UniProt P31994 43-217).
T2 construct: also called FcgRIIb
T2 sequence (looked up): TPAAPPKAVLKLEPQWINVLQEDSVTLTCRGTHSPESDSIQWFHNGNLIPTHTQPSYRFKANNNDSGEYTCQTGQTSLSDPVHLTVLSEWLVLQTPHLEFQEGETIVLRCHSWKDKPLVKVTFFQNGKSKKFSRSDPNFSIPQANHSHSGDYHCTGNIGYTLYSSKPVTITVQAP
Nature of the assay: SPR, FcgR analyte on protein A captured dAb-Fc. A general note: In SPR one partner is held on a chip, and binding of the other changes the refractive index at the surface.

A further assay has as its target T3, hCD16a-V158 (human, UniProt P08637 17-208, limits assumed).
T3 construct: also called FcgRIIIa-V158
Nature of the assay: SPR, FcgR analyte on protein A captured dAb-Fc.

The target in a further assay is T4, hCD32a-R131 (human, UniProt P12318 34-217).
T4 construct: also called FcgRIIa-R131
T4 sequence (looked up): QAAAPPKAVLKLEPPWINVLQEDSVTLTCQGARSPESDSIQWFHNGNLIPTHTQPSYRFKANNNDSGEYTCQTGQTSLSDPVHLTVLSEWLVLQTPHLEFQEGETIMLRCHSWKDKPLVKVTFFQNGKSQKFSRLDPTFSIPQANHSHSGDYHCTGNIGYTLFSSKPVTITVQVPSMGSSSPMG
In words: SPR, FcgR analyte on protein A captured dAb-Fc.

The next assay concerns the target T5, hCD16b-NA2 (human, UniProt O75015 17-200, limits assumed).
T5 construct: also called FcgRIIIb-NA2
In words: SPR, FcgR analyte on protein A captured dAb-Fc.

A further assay addresses T6, hCD32a-H131 (human, UniProt P12318 34-217).
T6 construct: also called FcgRIIa-H131
T6 sequence (looked up): T4 sequence (looked up) with R134H
In words: SPR, FcgR analyte on protein A captured dAb-Fc.

Residue numbers refer to the chain shown, from its start.

What is called Kd is the concentration at which binding is half-saturated. Higher therefore signals weaker binding.

T3 sequence (P08637 17-208 F176V limits assumed): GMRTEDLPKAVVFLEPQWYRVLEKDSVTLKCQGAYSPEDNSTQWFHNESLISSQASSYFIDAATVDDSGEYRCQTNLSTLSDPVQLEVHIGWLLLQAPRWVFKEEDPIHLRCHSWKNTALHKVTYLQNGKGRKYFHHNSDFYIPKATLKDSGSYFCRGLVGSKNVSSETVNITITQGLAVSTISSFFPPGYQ
T5 sequence (O75015 17-200 N65S limits assumed): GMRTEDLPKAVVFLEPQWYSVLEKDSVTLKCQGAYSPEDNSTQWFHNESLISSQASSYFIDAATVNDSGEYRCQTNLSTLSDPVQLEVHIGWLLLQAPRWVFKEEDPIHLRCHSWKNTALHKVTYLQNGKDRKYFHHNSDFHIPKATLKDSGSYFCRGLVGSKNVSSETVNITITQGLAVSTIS

B1: anti-GITR-IgG2 (antibody)
heavy: QVQLVESGGGVVQPGRSLRLSCAASGFTFSSYGMHWVRQAPGKGLEWVAVIWYEGSNKYYADSVKGRFTISRDNSKNTLYLQMNSLRAEDTAVYYCARGGSMVRGDYYYGMDVWGQGTTVTVSSASTKGPSVFPLAPCSRSTSESTAALGCLVKDYFPEPVTVSWNSGALTSGVHTFPAVLQSSGLYSLSSVVTVPSSNFGTQTYTCNVDHKPSNTKVDKTVERKCCVECPPCPAPPVAGPSVFLFPPKPKDTLMISRTPEVTCVVVDVSHEDPEVQFNWYVDGVEVHNAKTKPREEQFNSTFRVVSVLTVVHQDWLNGKEYKCKVSNKGLPAPIEKTISKTKGQPREPQVYTLPPSREEMTKNQVSLTCLVKGFYPSDIAVEWESNGQPENNYKTTPPMLDSDGSFFLYSKLTVDKSRWQQGNVFSCSVMHEALHNHYTQKSLSLSPGK
light: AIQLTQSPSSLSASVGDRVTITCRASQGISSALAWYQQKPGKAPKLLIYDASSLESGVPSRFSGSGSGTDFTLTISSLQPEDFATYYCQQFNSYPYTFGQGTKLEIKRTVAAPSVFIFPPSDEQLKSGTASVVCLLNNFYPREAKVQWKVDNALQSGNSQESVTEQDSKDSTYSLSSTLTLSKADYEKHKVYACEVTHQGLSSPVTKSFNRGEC
For the molecule B1, the “NFKB signaling EC50” value in the assay with human GITR on cells is approximately 0.01 µM.

B2: 3h56-269-IgG1.1f (Fc fusion)
chain: EVQLLESGGGLVQPGGSLRLSCAASGFTFRDYEMWWVRQAPGKGLERVSAINPQGTRTYYADSVKGRFTISRDNSKNTLYLQMNSLRAEDTAVYYCAKLPFRFSDRGQGTLVTVSSASTEPKSCDKTHTCPPCPAPEAEGAPSVFLFPPKPKDTLMISRTPEVTCVVVDVSHEDPEVKFNWYVDGVEVHNAKTKPREEQYNSTYRVVSVLTVLHQDWLNGKEYKCKVSNKALPSSIEKTISKAKGQPREPQVYTLPPSREEMTKNQVSLTCLVKGFYPSDIAVEWESNGQPENNYKTTPPVLDSDGSFFLYSKLTVDKSRWQQGNVFSCSVMHEALHNHYTQKSLSLSPGK
On to B2, for which the equilibrium dissociation constant (Kd) with hCD32b, with hCD16a-V158, with hCD32a-R131, in the assay with hCD16b-NA2 and with hCD32a-H131 was more than 5 µM in each case.

The values above are taken from patent publication US20240141059A1 (Bristol-Myers Squibb, published 2024).
